From US20240261333A1 (published 2024)

How the values were obtained:
Assay in all cases: co-IP with anti-FLAG, mass spectrometry; N-FLAG B3GNT2
[1] = molecular target: T1, YBX3 (UniProt P16989 2-372, limits assumed)
T1 construct: Endogenous protein found in the co-IP by mass spectrometry; also called XP_016875611.1 (+1)
Procedure: (§1) Cells were plated in 10-cm cell culture dishes and grown to 60-80% confluency. For each condition, two biological replicates were harvested for co-IP. Cells were washed with PBS and 4 mL of lysis buffer (20 mM HEPES, 1% Triton X-100, 150 mM NaCl, 1 mM EDTA, and 10% glycerol) containing protease inhibitor cocktail was added. Cells were scraped and lysate was incubated at 4° C. under rotary agitation for 1 h. Lysate was centrifuged at 14,000×g for 10 min at 4° C. Supernatant was transferred to a new tube and an aliquot was taken as the input. […] For Western blots, 10 μg/mL Chicken Anti-FLAG (Aves labs ET-DY100) and IgY control (R&D Systems AB-101-C) antibodies were biotinylated (Thermo Fisher Scientific 90407) and added to the respective conditions. Lysates with antibodies were incubated at 4° C. under rotary agitation overnight. For each mL of lysate, 50 μL of Pierce Protein A/G Magnetic Beads (Mass spectrometry; Thermo Fisher Scientific 88803) or Pierce Streptavidin Magnetic Beads (Western blot; Thermo Fisher Scientific 88817) was washed twice with lysis buffer. Lysates with antibodies were added to the beads and incubated at 4° C. under rotary agitation for 4 h. Beads were washed with lysis buffer 3 times and resuspended in lysis buffer for storage.
(§2) Magnetic beads were resuspended in 100 mM Tris pH 7.8, reduced, alkylated and digested with trypsin at 37° ° C. overnight. This solution was subjected to solid phase extraction to concentrate the peptides and remove unwanted reagents followed by injection onto a Shimadzu HPLC with fraction collector. Eight fractions were collected and after concentration were injected on a Waters NanoAcquity HPLC equipped with a self-packed Aeris 3 μm C18 analytical column 0.075 mm by 20 cm, (Phenomenex). Peptides were eluted using standard reverse-phase gradients. The effluent from the column was analyzed using a Thermo Orbitrap Elite mass spectrometer (nanospray configuration) operated in a data dependent manner for 54 minutes. The resulting fragmentation spectra were correlated against the known database using Proteome Discover 1.4 (Thermo Fisher Scientific).

[2] = molecular target: T2, RPLP2 (UniProt P05387 1-115)
T2 construct: Endogenous protein found in the co-IP by mass spectrometry; also called NP_000995.1
T2 sequence (P05387 whole entry): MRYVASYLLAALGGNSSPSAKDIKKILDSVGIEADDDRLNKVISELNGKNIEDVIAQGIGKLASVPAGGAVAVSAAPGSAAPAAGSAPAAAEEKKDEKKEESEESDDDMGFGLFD
Procedure: as §1, §2

[3] = molecular target: T3, HNRNPA1 (UniProt P09651 2-372)
T3 construct: Endogenous protein found in the co-IP by mass spectrometry; also called NP_112420.1
T3 sequence (P09651 2-372 limits assumed): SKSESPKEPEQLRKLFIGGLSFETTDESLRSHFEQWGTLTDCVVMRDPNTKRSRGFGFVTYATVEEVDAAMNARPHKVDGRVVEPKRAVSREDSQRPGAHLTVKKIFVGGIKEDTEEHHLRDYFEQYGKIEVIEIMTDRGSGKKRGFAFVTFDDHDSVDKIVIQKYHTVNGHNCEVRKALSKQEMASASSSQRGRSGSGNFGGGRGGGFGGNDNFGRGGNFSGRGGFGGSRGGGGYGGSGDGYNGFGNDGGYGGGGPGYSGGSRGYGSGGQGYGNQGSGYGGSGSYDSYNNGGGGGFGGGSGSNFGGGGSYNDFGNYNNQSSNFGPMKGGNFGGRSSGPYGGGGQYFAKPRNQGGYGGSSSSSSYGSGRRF
Procedure: as §1, §2

[4] = molecular target: T4, HBA1 (UniProt P69905 2-142)
T4 construct: Protein found in the co-IP by mass spectrometry; also called NP_000549.1
T4 sequence (P69905 2-142 limits assumed): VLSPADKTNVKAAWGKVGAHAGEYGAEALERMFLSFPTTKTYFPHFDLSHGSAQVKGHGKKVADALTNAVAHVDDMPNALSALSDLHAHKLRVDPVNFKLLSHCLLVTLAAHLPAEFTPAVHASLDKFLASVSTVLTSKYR
Procedure: as §1, §2

[5] = molecular target: RPL36A (UniProt P83881 1-106)
Procedure: as §1, §2

[6] = molecular target: RPL31 (UniProt P62899 1-125)
Procedure: as §1, §2

[7] = molecular target: RPL21 (UniProt P46778 2-160)
Procedure: as §1, §2

[8] = molecular target: T5, EEF1A1 (UniProt P68104 2-462)
T5 construct: Endogenous protein found in the co-IP by mass spectrometry; also called NP_001393.1
T5 sequence (looked up): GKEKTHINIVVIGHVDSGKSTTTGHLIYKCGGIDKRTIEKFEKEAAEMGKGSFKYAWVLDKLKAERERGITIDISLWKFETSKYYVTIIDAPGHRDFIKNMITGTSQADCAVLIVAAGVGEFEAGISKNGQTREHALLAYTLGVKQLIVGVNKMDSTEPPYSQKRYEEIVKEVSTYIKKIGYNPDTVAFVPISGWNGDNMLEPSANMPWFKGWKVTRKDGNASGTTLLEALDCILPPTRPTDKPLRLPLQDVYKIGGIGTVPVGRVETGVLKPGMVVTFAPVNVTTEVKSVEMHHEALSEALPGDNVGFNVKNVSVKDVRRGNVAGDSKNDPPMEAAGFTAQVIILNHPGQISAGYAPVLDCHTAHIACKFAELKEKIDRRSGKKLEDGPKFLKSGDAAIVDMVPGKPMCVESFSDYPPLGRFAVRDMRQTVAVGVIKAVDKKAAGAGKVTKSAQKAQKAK
Procedure: as §1, §2

[9] = molecular target: T6, RCC2 (UniProt Q9P258 1-522)
T6 construct: Endogenous protein found in the co-IP by mass spectrometry; also called NP_061185.1
T6 sequence (Q9P258 whole entry): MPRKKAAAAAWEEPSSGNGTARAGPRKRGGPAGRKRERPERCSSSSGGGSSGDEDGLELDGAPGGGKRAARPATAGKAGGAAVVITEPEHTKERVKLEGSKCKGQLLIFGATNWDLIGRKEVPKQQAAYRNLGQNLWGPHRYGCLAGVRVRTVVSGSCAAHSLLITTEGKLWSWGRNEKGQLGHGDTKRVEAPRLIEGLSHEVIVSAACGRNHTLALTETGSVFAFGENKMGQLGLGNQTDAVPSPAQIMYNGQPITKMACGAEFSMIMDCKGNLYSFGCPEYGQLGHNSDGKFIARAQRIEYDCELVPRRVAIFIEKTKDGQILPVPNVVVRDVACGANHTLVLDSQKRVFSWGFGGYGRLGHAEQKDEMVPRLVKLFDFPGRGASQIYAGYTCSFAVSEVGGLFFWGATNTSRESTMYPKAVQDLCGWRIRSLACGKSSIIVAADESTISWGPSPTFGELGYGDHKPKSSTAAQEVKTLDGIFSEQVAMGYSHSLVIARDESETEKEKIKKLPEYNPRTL
Procedure: as §1, §2

T1 sequence (P16989 2-372 limits assumed): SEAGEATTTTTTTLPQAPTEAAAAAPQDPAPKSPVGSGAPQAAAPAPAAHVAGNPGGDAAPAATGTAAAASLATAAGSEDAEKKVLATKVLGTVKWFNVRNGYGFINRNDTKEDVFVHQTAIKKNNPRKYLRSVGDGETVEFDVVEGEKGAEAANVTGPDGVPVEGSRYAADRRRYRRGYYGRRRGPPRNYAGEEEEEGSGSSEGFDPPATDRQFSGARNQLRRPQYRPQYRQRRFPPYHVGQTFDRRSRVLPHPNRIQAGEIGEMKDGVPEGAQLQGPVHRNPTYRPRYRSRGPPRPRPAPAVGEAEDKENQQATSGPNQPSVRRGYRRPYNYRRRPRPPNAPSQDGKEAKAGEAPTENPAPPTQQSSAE

B1: N-terminal FLAG tagged B3GNT2 (enzyme, human, UniProt Q9NY97 1-397, looked up)
chain: MSVGRRRIKLLGILMMANVFIYFIMEVSKSSSQEKNGKGEVIIPKEKFWKISTPPEAYWNREQEKLNRQYNPILSMLTNQTGEAGRLSNISHLNYCEPDLRVTSVVTGFNNLPDRFKDFLLYLRCRNYSLLIDQPDKCAKKPFLLLAIKSLTPHFARRQAIRESWGQESNAGNQTVVRVFLLGQTPPEDNHPDLSDMLKFESEKHQDILMWNYRDTFFNLSLKEVLFLRWVSTSCPDTEFVFKGDDDVFVNTHHILNYLNSLSKTKAKDLFIGDVIHNAGPHRDKKLKYYIPEVVYSGLYPPYAGGGGFLYSGHLALRLYHITDQVHLYPIDDVYTGMCLQKLGLVPEKHKGFRTFDIEEKNKNNICSYVDLMLVHSRKPQEMIDIWSQLQSAHLKC
notes: FLAG-tagged ORF overexpressed in cells; bait of the anti-FLAG co-IP; also called N-FLAG B3GNT2; N-term FLAG; not shown: FLAG tag at the N-terminus
B1 was tested, and the “co-IP mass spectrometry count” value [1] was 0, the “co-IP mass spectrometry count” value [2] was 6 and the “co-IP mass spectrometry count” value [3] was 7. For the same binder, the “co-IP mass spectrometry count” value [4] was 3, the “co-IP mass spectrometry count” value [5] was 3 and the “co-IP mass spectrometry count” value [6] was 0. For the same binder, the “co-IP mass spectrometry count” value [7] was 8, the “co-IP mass spectrometry count” value [8] was 13 and the “co-IP mass spectrometry count” value [9] was 0.
